Assay results published in the supplement of paper PMC9170038.

Test system: K4 kissing-loop RNA reporter
Assay: apparent KD of K4 kissing-loop reporter; higher = weaker reporter binding
Conditions: Eterna round: R107
Procedure: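 RNA-MaP round R107: designed RNA switches with theophylline, tryptophan, arginine or FMN aptamers are transcribed on-chip within common flanks. They are titrated with a labelled K4 kissing-loop RNA reporter in RNA-MaP buffer (100 mM Tris pH 7.5, 80 mM KCl, 4 mM MgCl2), without ligand or with the indicated ligand. Median apparent KD per design.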

[1] = input ligand: theophylline 20 uM
[2] = input ligand: tryptophan 2.4 mM
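Also: bound reporter read as fluorescence of individual clusters on recovered sequencing chips by microscopy, with normalized cluster intensities fitted with a binding model.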

Row | Sequence | apparent KD of K4 kissing-loop reporter (input ligand: FMN 200 uM) | apparent KD of K4 kissing-loop reporter (input ligand: arginine 13.2 mM) | apparent KD of K4 kissing-loop reporter (input ligand: none) | apparent KD of K4 kissing-loop reporter [1] | apparent KD of K4 kissing-loop reporter [2]
1 | CCAUCCGAGUCGGCCGCCACUUUGAGUGAUGUUUGGAGUCUGAGUCAACAUAAAUACUUAGUUUAAAGGACCGGGACUUCGGAUG [theeternabot_exclusion_KL_Trp_B_7] | 773 nM | 722 nM | 1020 nM | 1060 nM | 363 nM
2 | CCGAGCUACAGCGAUACCAGUGUGGAGUGAUGUUCCCUGGUCCGGGCUGUUGUUCCCUUGCGCCCUUGGCAGCGCAGAAGCAGCU [Exclusion Theophylline B GF 14] | 303 nM | 316 nM | 367 nM | 267 nM | 396 nM
3 | AGAGUACGAAAGUACUCCUCUACACACUGACGAGGACCGGUACGGCCGCCACUCGAGUUGAGUGAUGUUCGACAGUGUGUAGAGA [Omei KL Tryp A SS C v1] | 120 nM | 22.3 nM | 25.6 nM | 163 nM | 783 nM
4 | ACGUGCACUAGUGAUGUUAGAAAAUACGAAGGAGCGGGCGAAAGCCCAGGUAGGUCGCGUAAUAGCACGAGCCACGAAAGUGGCA | 254 nM | 271 nM | 325 nM | 447 nM | 248 nM
5 | GGCGAAUAAAAUCGCCUAGAGAGAAAGGAUACCAGCACCCGGCGGUGCCCUUGGCAGCCUAGCCCAGUGAUGUUGGGUCCUCUAA [Biaveinbe] | 263 nM | 121 nM | 140 nM | 345 nM | 206 nM
6 | AAUGUGCAGGGAAGGAGCGUAGUCCAGUGCUGUUGGAGUUAGAUACCAGUGAUGUUGGUUAUACAGGUAGGUCGCCCUAAAGCGC [whbob_Ex_Arginine_B_2th161] | 139 nM | 154 nM | 140 nM | 161 nM | 130 nM
7 | AAUGCGCAGGGAAGGAGCGCCGUCCAGUGAUGUUGGAGUUAAAUACCAGUGAUGUUGGUUAGGCAGGUAGGUCGCCCUAAAGCGC [Exclusion Arginine B GF 1] | 118 nM | 79.9 nM | 92.1 nM | 98 nM | 83.8 nM
8 | AAAUGUUUGUAUUUGAACAAUUUCUUUAGGGAGGAUAUUGGUAAUACAAGAAGGCCCUGAUGGGAGUGAUGUUCCCAUAACGCGG [Exclusion FMN A GF15] | 46.7 nM | 83.9 nM | 74 nM | 87.5 nM | 62.1 nM
9 | AGGCAAUAUGCGGCCGCCACUUUCAGUGAUGUUGAGACGCGGAAUGUUGUAUAAUAUCGCCACGAAAGGACCGGGCAAGGGAAAG [theeternabot_exclusion_KL_Trp_B_5] | 691 nM | 434 nM | 542 nM | 423 nM | 355 nM
10 | AAGGCCACGAGAAGGAGCGUGUUGUGGAGUGAUGUUCCACUGUAGACCUAAGGUCUACAGGCACAGGUAGGUCGCUCGUGGUCAA [Omei KL Arginine B SS A v6] | 131 nM | 110 nM | 145 nM | 131 nM | 127 nM
11 | UAUAUAGUGACGGCCGCCACUAUAUUAAUGUUUUUGUUAGAGUGAUGUUUUGAUUAAUAUUUUUAUAGGACCGGGUUAUAUGUUA [xzzxmullin] | 657 nM | 403 nM | 634 nM | 628 nM | 558 nM
12 | UGAUACCAGACGGCCGCCACUGGGACCGGGAGUGAUGUUCCAAAUAAAAGAAGCUCGGCCGCCACUAGGACCGGGUCUGGUAUCU [TrypBX 21 #DoubleAptamer #SwitchBubble] | 395 nM | 261 nM | 339 nM | 367 nM | 182 nM
13 | AAACGUUGGUGCGAUACCAGCUGAUCGGAAACGAUCUUGCUGGAGUGAUGUUCCAAGUAAAGCCCUUGGCAGCGCACCGACGAAA [MAT - Same State Theophlline B - Mod of Eli - D22] | 92.5 nM | 58.4 nM | 86.5 nM | 145 nM | 69.3 nM
14 | AUUCUUAUAAUAACACUAUAUACAACUGAAGGAGCGACAAUAAAGUCAGGUAGGUCGCAGAAUAAAUGAGUGAUGUUCAUUUUUA [JR_ExcArginiA_Sub011] | 129 nM | 153 nM | 129 nM | 150 nM | 86.8 nM
15 | GUCCCAGUGAUGUUGGUAGGCGGGCGGGAUACCAGCGGAGACUCACGCCCUUGGCAGCCCACAUAUCCCGCGUAGGGAUUAGCCC [Same State - Theophylline A (Freestyle 23)] | 285 nM | 258 nM | 316 nM | 339 nM | 275 nM
16 | AAACGUUGGUGCGAUACCAGCUUGAUCGGUAAACGAUCUACUGGAGUGAUGUUCCUAAAUAGCCCUUGGCAGCGCACCGACGAAA [MAT - Same State Theophlline B - Mod of Eli - D8] | 181 nM | 155 nM | 169 nM | 128 nM | 166 nM
17 | AAAAUAAACCAGUGAUGUUGGUAUCCGGAUACCAGCGAUAAUCAUCGCCCUUGGCAGCCGCGGACGUACAAAAUAAGUACGUCCU [MatMod 14 - Jieux - Same State - Theophylline A] | 208 nM | 135 nM | 175 nM | 268 nM | 182 nM
18 | AAAUAUUCGAGUGAUGUUCGUUAAAUUACAGAGGAUAUGCUUAAAAGCAGAAGGCUGUAUUUCUAUUUGUUAUGUAAUUUUAAAA [JR_ExcFMNA_Sub004] | 117 nM | 209 nM | 157 nM | 196 nM | 115 nM
19 | CAUAGACAAGUGAUGUUUGUCAUAACCGAAGGAGCGUCGUUGAAGACAGGUAGGUCGCGGAUUAAUUUAGAUUAUAUUCUUUUUA [JR_SSArginiA_Sub020] | 595 nM | 462 nM | 570 nM | 567 nM | 542 nM
20 | UGAUACCAGACGGCCGCCACUGGUGCAUGUCAAAGACAUGCUAACCAAAUCGUGGAGUGAUGUUCCAGGACCGGGUCUGGUAUCU [TrypBX 22 #SwitchBubble #Palindromic #StaticStem] | 235 nM | 207 nM | 217 nM | 239 nM | 570 nM
21 | UACAUUGCAGUCUUCUUCGUCCUAGAUGACUAGGAUAUCAGGAAACUGAGAAGGAGUCACUGCAGUGAUGUUGCAGCUAGGACGA [KL-SSFMN-A9] | 110 nM | 118 nM | 110 nM | 121 nM | 105 nM

Row | Sequence | apparent KD of K4 kissing-loop reporter (input ligand: FMN 200 uM) | apparent KD of K4 kissing-loop reporter (input ligand: arginine 13.2 mM) | apparent KD of K4 kissing-loop reporter (input ligand: none) | apparent KD of K4 kissing-loop reporter [1] | apparent KD of K4 kissing-loop reporter [2]
22 | AUUAUAUUGUGAAGGAGCGCGAAUAGCAGUGAUGUUGCUAUCAAACGAUAUAUUAUUUACACGCAGGUAGGUCGCACAAUAUAUA [JR_Nu_SSArginiB_Sub022] | 171 nM | 125 nM | 149 nM | 124 nM | 155 nM
23 | GAAAGGAGUGAUGUUCCUGAUAAUUUUAUGAAGGAUAUUCGAUGUGGAAGAAGGUCAUGCAGGCAGCAAGGUUGCGAUCAUAUCA [theeternabot_exclusion_KL_FMN_A_40] | 131 nM | 158 nM | 143 nM | 185 nM | 128 nM
24 | GAUAUAGUGAUGUUAUAUACUGAUAGACAACGAGGACCGGUACGGCCGCCACUCGAGAGGGUGAAAAUAAUGAUAAAAUAAUAAU [ExyTryA#1] | 343 nM | 310 nM | 359 nM | 298 nM | 265 nM
25 | AGGACGUGAGAAGAUACCAGAGAAUAAUGCAGUGAUGUUGCUAAAUAUAAUUUAAUAUAACUCCCUUGGCAGCUUAAGUUAGUCU [Theophylline b same state] | 75.2 nM | 120 nM | 98.7 nM | 115 nM | 73.9 nM
26 | GCUAGUUUGGAAGGAUAUUCGUGCGAUCAAGUCAAACUUUACUGAGGGCGUUUUGGAGUGAUGUUCGAAGAAGGUCCCUUACUUA [theeternabot_exclusion_KL_FMN_B_28] | 1400 nM | 816 nM | 999 nM | 664 nM | 758 nM
27 | GCAUCGAUGGCAGGAUAUAGGUUCGUGGAGUGAUGUUCCAUAGCCCGAGUGAUGUUCGUUAUCCGCCUAGAAGGGCCGUGGAUGC [whbob_Ex_FMNB__2th215] | 263 nM | 210 nM | 297 nM | 221 nM | 244 nM
28 | GUACGGCGGGCGGCCGCCACUGGUAUACGAGUGAUGUUCGGAUAUACGUGAUGUAUGGUAAUUAACAGGACCGGGUCAGGGCCGG [whbob_SS_Tryp_B_t23] | 115 nM | 158 nM | 229 nM | 147 nM | 119 nM
29 | AGUAGUUGGACGGCCGCCACUAGAACGCCUUUGCCAAAGGCAGAGGACUAGAGUGAUGUUCUAGCUAGGACCGGGUCCAACUACA [Omei KL Tryp B SS A v4] | 224 nM | 232 nM | 308 nM | 127 nM | 1220 nM
30 | AUGGUUGUCGUAGGAUAUGUAGGUAAUUCCUAUAGCAGUGAUGUUGCUAAUAUCUUGGAAGAAGGAACAGAAGGACGAUAACCAC [KL-SSFMN-B1 #analogue] | 123 nM | 109 nM | 124 nM | 109 nM | 106 nM
31 | UGACUGGAUGGAAGGAGCGCUAAACUCCUAGUGAUGUUAGGGACACGAGGCAAAGCCUCGAAGCAGGUAGGUCGCCAUCUAGUCU [FiskerMod 22 - Jieux - Same State - Arginine B] | 184 nM | 148 nM | 174 nM | 182 nM | 167 nM
32 | GAGGUGGAGUGAUGUUCCACACUCGCUAGUAAGGAUAUGGCUGCUUCCAGAAGGUACCUAGAUUCAGUGUGCAUCAGUAACGUGC [theeternabot_exclusion_KL_FMN_A_4] | 95.2 nM | 96.3 nM | 106 nM | 105 nM | 96.3 nM
33 | GGGAAGGAGUGAUGUUUCUUCUGAAUUUCUAAGGAUAUACGAUGCGGUAGAAGGUAGAUGCCUUGCAGGAAAUGUUCACCACGCG [theeternabot_exclusion_KL_FMN_A_2] | 218 nM | 146 nM | 150 nM | 184 nM | 158 nM
34 | UAUCUUUACUGAAGGAGCGAGCAUUUUGGAGUGAUGUUCCGAGCGAGUGAUGUUCGCAUAGCUCAGGUAGGUCGCAGUGGGAAAA [Same State Arginie B GF 15] | 152 nM | 149 nM | 143 nM | 162 nM | 138 nM
35 | GCCGUAGAUGGAAGGAGCGUGGUGGACUCGUGAAGUGAUGUUUCAAGUCGAUAUGCCCAACCACAGGUAGGUCGCCAUCUACGGC | 206 nM | 161 nM | 169 nM | 198 nM | 174 nM
36 | AUUCAGAUCUGAAGGAGCGCCUUGACAAAUUACUGCUUUGAGCAGUGAUGUUGCUCAAUUAGGCAGGUAGGUCGCAGAUCUAACC [Arg B Ex t7] | 377 nM | 335 nM | 414 nM | 383 nM | 389 nM
37 | UCCUGCAAUCGCCCACGAAAGUGGAUCGAUACCAGAGUCGAAAGACUCCCUUGGCAGCGAGUGAUGUUCGAAGCAGGUAAAUAAA | 771 nM | 612 nM | 765 nM | 605 nM | 637 nM
38 | AGGGAUGAUGGAUAAAUAAACAAAAGGGAUACCAGUCAAAUAAUAGGCCCUUGGCAGCUUUAGAUCAGUGAUGUUGAAGAUAUUG [Theophylline A Same State; Euphoria Solution] | 84.1 nM | 127 nM | 93 nM | 159 nM | 78.5 nM
39 | UUUCGUUGAAGUGAUACCAGACUUGAAAGUGAUGUUUUCCAAUAAUUUAAAUUUUUAGCUGUCCCUUGGCAGCACAGUUUAUUUA [JR_Nu_ExcTheophyB_Sub025] | 210 nM | 363 nM | 275 nM | 401 nM | 181 nM
40 | UUGUCCGGGUGAUGGUCAUCACGUGGCGGGCGAGGACCGGUACGGCCGCCACUCGACUUUGCAGUGAUGUUGCAAACCGGACAAU [Exclusion - Tryptophan A (Freestyle 23)] | 231 nM | 174 nM | 192 nM | 224 nM | 210 nM
41 | AAGCAUUCUUCGGAAUGCAGACCCGCUGAGGAGGAUAUGACGAAAGUCAGAAGGCCUCAGUGAUGUUGAGGCCUCCUCAAUGGUC [Omei KL FMN A Exc A v1] | 138 nM | 135 nM | 187 nM | 173 nM | 171 nM
